Experimental data published in article PMC5383425, “Differential CLE peptide perception by plant receptors implicated from structural and functional analyses of TDIF-TDR interactions” (PLoS ONE, 2017).
Square brackets hold non-standard residues; d marks the D form. Ends that are not written are not given here. Hyp = O=C(O)[C@@H]1C[C@@H](O)CN1

Legend:
Test in all cases: ITC; 0.5–1 mM peptide titrated into 10–40 μM ecdTDR; 25°C; 10 mM sodium citrate, 100 mM NaCl, pH 5.5; fitted to one set of binding sites; MicroCal Auto-iTC200
Settings in all cases: both partners purified
[1] = target: T1, ecdTDR Y253 alanine mutant (Arabidopsis thaliana, UniProt Q9FII5 30-642, alanine substitution of Y253)
T1 construct: TDR/PXY of A. thaliana, extracellular domain, residues 30-642; The text says only 'mutational studies' of Y253; source: High Five insect cells (baculovirus), secreted, purified as the wild type (Ni-NTA, size-exclusion chromatography)
T1 sequence (looked up): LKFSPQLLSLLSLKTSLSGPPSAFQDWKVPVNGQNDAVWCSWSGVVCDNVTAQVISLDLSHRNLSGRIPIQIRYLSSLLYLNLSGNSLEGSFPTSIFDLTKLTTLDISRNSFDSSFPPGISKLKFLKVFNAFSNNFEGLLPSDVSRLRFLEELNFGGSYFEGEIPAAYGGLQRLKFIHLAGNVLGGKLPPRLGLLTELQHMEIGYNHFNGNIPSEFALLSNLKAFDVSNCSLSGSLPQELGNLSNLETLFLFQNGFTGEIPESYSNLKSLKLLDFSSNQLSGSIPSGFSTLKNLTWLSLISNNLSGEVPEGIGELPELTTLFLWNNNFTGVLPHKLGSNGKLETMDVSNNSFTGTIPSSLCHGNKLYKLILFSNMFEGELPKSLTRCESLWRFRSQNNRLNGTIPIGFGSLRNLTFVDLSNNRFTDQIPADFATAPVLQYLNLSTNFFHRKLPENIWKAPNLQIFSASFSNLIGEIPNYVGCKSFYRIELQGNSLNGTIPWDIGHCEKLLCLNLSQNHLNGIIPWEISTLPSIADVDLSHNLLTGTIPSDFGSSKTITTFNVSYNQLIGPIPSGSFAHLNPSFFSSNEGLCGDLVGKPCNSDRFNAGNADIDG

[2] = target: T2, ecdTDR W353A mutant (Arabidopsis thaliana, UniProt Q9FII5 30-642, W353A)
T2 construct: TDR/PXY of A. thaliana, extracellular domain, residues 30-642; source: High Five insect cells (baculovirus), secreted, purified as the wild type (Ni-NTA, size-exclusion chromatography)
T2 sequence (looked up): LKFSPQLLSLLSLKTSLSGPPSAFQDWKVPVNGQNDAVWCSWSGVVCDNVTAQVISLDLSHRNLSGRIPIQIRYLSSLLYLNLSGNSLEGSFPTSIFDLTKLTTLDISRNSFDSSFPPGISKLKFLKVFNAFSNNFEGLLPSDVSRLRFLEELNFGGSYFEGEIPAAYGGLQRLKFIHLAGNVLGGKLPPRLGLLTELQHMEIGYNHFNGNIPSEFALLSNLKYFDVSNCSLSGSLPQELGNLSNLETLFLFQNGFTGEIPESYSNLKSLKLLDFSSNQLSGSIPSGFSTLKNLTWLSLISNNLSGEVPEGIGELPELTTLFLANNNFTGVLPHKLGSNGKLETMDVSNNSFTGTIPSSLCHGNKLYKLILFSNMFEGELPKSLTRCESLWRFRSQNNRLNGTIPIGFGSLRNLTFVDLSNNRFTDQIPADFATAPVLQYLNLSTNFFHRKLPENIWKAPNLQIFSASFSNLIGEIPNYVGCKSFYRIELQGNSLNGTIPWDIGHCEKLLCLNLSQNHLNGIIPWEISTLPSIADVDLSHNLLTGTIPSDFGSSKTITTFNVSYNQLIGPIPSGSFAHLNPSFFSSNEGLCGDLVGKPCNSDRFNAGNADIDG

[3] = target: T3, ecdTDR W325A mutant (Arabidopsis thaliana, UniProt Q9FII5 30-642, single alanine substitution of W325)
T3 construct: TDR/PXY of A. thaliana, extracellular domain, residues 30-642; also called single alanine substitution of W325; source: High Five insect cells (baculovirus), secreted, purified as the wild type (Ni-NTA, size-exclusion chromatography)
T3 sequence (looked up): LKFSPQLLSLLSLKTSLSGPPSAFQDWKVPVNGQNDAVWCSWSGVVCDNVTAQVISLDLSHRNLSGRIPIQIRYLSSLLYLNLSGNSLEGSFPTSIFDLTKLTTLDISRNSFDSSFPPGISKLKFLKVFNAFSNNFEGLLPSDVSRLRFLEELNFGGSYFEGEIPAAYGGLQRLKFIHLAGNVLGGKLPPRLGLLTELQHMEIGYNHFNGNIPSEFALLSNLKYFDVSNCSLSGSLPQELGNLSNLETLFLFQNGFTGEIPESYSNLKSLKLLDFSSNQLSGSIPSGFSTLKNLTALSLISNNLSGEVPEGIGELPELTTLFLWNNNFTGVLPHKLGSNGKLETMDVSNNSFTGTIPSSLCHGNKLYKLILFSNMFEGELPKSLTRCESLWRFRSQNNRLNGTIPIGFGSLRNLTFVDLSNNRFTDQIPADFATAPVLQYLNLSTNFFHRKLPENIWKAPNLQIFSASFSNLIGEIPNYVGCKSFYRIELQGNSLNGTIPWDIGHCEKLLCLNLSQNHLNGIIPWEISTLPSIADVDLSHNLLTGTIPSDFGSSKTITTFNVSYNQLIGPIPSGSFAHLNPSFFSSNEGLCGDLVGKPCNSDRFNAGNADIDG

B1: Tracheary Element Differentiation Inhibitory Factor (TDIF) peptide (peptide)
peptide: HEV[Hyp]SG[Hyp]NPISN
notes: TDIF, the 12-residue CLE peptide processed from CLE41 and CLE44 of A. thaliana; printed as HEV(Hyp)SG(Hyp)NPISN; numbers count on: the 12-residue peptide; CLE44 encodes the same peptide; also called wild type TDIF; wtTDIF; source: synthetic peptide (peptide 2.0)
[1]
  binding result: binds
[2]
  fold lower binding than wild-type ecdTDR: 8.4 fold
[3]
  binding result: binds
